# Source: patent US20060067886A1, “Gastrin receptor-avid peptide conjugates” (priority 1997, published 2006)
# Test: in vivo
# Details: SCID, mouse, in vivo, iv, 4 uCi, total radioactivity; for tissue uptake at […] / tissue uptake at 1 h / tissue uptake at 48 h / tissue uptake at 0.5 h / tissue uptake at 4 h / tissue uptake at 24 h / tissue uptake at 72 h: Avg % ID/gm
compound,measurement,setting,value
"CSCC[C@H](NC(=O)[C@H](CC(C)C)NC(=O)[C@H](Cc1cnc[nH]1)NC(=O)CNC(=O)[C@@H](NC(=O)[C@H](C)NC(=O)[C@H](Cc1c[nH]c2ccccc12)NC(=O)[C@H](CCC(N)=O)NC(=O)CCCCCCCNC(=O)CN1CCN(CC(=O)O)CCN(CC(=O)O)CCN(CC(=O)O)CC1)C(C)C)C(N)=O [111In-DOTA-8-Aoc-BBN[7-14]NH2, metal not drawn]",tissue uptake dose at […],"Avg % ID, Blood, 15 min",7.92 ± 2.03 %ID
same,tissue uptake dose at 0.5 h,"Avg % ID, Blood, 30 min",2.47 ± 0.74 %ID
same,tissue uptake dose at 1 h,"Avg % ID, Blood, 1 hr",0.92 ± 0.58 %ID
same,tissue uptake dose at 48 h,"Avg % ID, Blood",0.12 ± 0.05 %ID
same,tissue uptake dose at […],"Avg % ID, Carcass, 15 min",33.1 ± 5.51 %ID
same,tissue uptake dose at 0.5 h,"Avg % ID, Carcass, 30 min",12.3 ± 3.27 %ID
same,dose excreted at 24 h,"Avg % ID, Feces, 24 hrs",6.1 ± 2.6%
same,dose excreted at 48 h,"Avg % ID, Feces",5.89 ± 3.81%
same,tissue uptake dose at […],"Avg % ID, Heart, 15 min",0.2 ± 0.07 %ID
same,tissue uptake dose at 0.5 h,"Avg % ID, Heart, 30 min",0.06 ± 0.02 %ID
same,tissue uptake dose at 4 h,"Avg % ID, Heart, 4 hrs",0.01 ± 0.01 %ID
same,tissue uptake dose at 48 h,"Avg % ID, Heart",0.01 ± 0.01 %ID
same,tissue uptake dose at […],"Avg % ID, Kidney, 15 min",7.18 ± 3.16 %ID
same,tissue uptake dose at 0.5 h,"Avg % ID, Kidney, 30 min",2.45 ± 0.78 %ID
same,tissue uptake dose at 1 h,"Avg % ID, Kidney, 1 hr",1.81 ± 0.37 %ID
same,tissue uptake dose at 4 h,"Avg % ID, Kidney, 4 hrs",0.97 ± 0.08 %ID
same,tissue uptake dose at 48 h,"Avg % ID, Kidney",0.16 ± 0.04 %ID
same,tissue uptake dose at […],"Avg % ID, L. Intestine, 15 min",5.84 ± 0.9 %ID
same,tissue uptake dose at 0.5 h,"Avg % ID, L. Intestine, 30 min",4.53 ± 0.45 %ID
same,tissue uptake dose at 1 h,"Avg % ID, L. Intestine, 1 hr",2.18 ± 0.86 %ID
same,tissue uptake dose at 24 h,"Avg % ID, L. Intestine, 24 hrs",1.46 ± 0.42 %ID
same,tissue uptake dose at 48 h,"Avg % ID, L. Intestine",0.73 ± 0.21 %ID
same,tissue uptake dose at 72 h,"Avg % ID, L. Intestine, 72 hrs",0.41 ± 0.05 %ID
same,tissue uptake dose at […],"Avg % ID, Liver, 15 min",1.85 ± 0.41 %ID
same,tissue uptake dose at 0.5 h,"Avg % ID, Liver, 30 min",0.85 ± 0.21 %ID
same,tissue uptake dose at 72 h,"Avg % ID, Liver, 72 hrs",0.08 ± 0.01 %ID
same,tissue uptake dose at […],"Avg % ID, Lung, 15 min",0.62 ± 0.25 %ID
same,tissue uptake dose at 0.5 h,"Avg % ID, Lung, 30 min",0.2 ± 0.06 %ID
same,tissue uptake dose at 24 h,"Avg % ID, Lung, 24 hrs",0.02 ± 0.01 %ID
same,tissue uptake dose at 48 h,"Avg % ID, Lung",0.01 %ID
same,tissue uptake dose at […],"Avg % ID, Muscle, 15 min",0.16 ± 0.06 %ID
same,tissue uptake dose at 0.5 h,"Avg % ID, Muscle, 30 min",0.05 ± 0.02 %ID
same,tissue uptake dose at 1 h,"Avg % ID, Muscle, 1 hr",0.01 ± 0.01 %ID
same,tissue uptake dose at 24 h,"Avg % ID, Muscle, 24 hrs",0.01 ± 0.01 %ID
same,tissue uptake dose at […],"Avg % ID, Pancreas, 15 min",10.3 ± 1.44 %ID
same,tissue uptake dose at 0.5 h,"Avg % ID, Pancreas, 30 min",7.37 ± 1.2 %ID
same,tissue uptake dose at 4 h,"Avg % ID, Pancreas, 4 hrs",3.28 ± 0.8 %ID
same,tissue uptake dose at 48 h,"Avg % ID, Pancreas",0.17 ± 0.09 %ID
same,tissue uptake dose at 72 h,"Avg % ID, Pancreas, 72 hrs",0.06 ± 0.02 %ID
same,tissue uptake dose at […],"Avg % ID, S. Intestine, 15 min",6.98 ± 0.35 %ID
same,tissue uptake dose at 0.5 h,"Avg % ID, S. Intestine, 30 min",6.24 ± 0.46 %ID
same,tissue uptake dose at 1 h,"Avg % ID, S. Intestine, 1 hr",7.45 ± 1.62 %ID
same,tissue uptake dose at 4 h,"Avg % ID, S. Intestine, 4 hrs",2.43 ± 0.56 %ID
same,tissue uptake dose at 24 h,"Avg % ID, S. Intestine, 24 hrs",0.98 ± 0.26 %ID
same,tissue uptake dose at 48 h,"Avg % ID, S. Intestine",0.32 ± 0.07 %ID
same,tissue uptake dose at 72 h,"Avg % ID, S. Intestine, 72 hrs",0.15 ± 0.02 %ID
same,tissue uptake dose at […],"Avg % ID, Spleen, 15 min",0.1 ± 0.02 %ID
same,tissue uptake dose at 0.5 h,"Avg % ID, Spleen, 30 min",0.08 ± 0.03 %ID
same,tissue uptake dose at 48 h,"Avg % ID, Spleen",0.01 ± 0.01 %ID
same,tissue uptake dose at 72 h,"Avg % ID, Spleen, 72 hrs",0.01 ± 0.01 %ID
same,tissue uptake dose at […],"Avg % ID, Stomach, 15 min",0.98 ± 0.18 %ID
same,tissue uptake dose at 0.5 h,"Avg % ID, Stomach, 30 min",0.65 ± 0.04 %ID
same,tissue uptake dose at 1 h,"Avg % ID, Stomach, 1 hr",0.52 ± 0.11 %ID
same,tissue uptake dose at 4 h,"Avg % ID, Stomach, 4 hrs",0.34 ± 0.23 %ID
same,tissue uptake dose at 72 h,"Avg % ID, Stomach, 72 hrs",0.02 ± 0.01 %ID
same,tissue uptake dose at […],"Avg % ID, Tumor, 15 min",1.92 ± 1.22 %ID
same,tissue uptake dose at 0.5 h,"Avg % ID, Tumor, 30 min",0.99 ± 0.62 %ID
same,tissue uptake dose at 24 h,"Avg % ID, Tumor, 24 hrs",0.25 ± 0.13 %ID
same,tissue uptake dose at 48 h,"Avg % ID, Tumor",0.08 ± 0.05 %ID
same,dose excreted at […],"Avg % ID, Urine, 15 min",27.9 ± 10.3%
same,dose excreted at 0.5 h,"Avg % ID, Urine, 30 min",62.6 ± 5.02%
same,dose excreted at 1 h,"Avg % ID, Urine, 1 hr",68.6 ± 6.96%
same,dose excreted at 4 h,"Avg % ID, Urine, 4 hrs",81.8 ± 3.82%
same,dose excreted at 24 h,"Avg % ID, Urine, 24 hrs",87.2 ± 4.31%
same,dose excreted at 48 h,"Avg % ID, Urine",91.8 ± 4.13%
same,dose excreted at 72 h,"Avg % ID, Urine, 72 hrs",92.5 ± 1.09%
same,tissue uptake at […],"Blood, 15 min",5.58 ± 2.43 %ID/g
same,tissue uptake at 1 h,"Blood, 1 hr",0.6 ± 0.39 %ID/g
same,tissue uptake at 48 h,Blood,0.07 ± 0.03 %ID/g
same,tissue uptake at […],"Heart, 15 min",2.2 ± 1.05 %ID/g
same,tissue uptake at 0.5 h,"Heart, 30 min",0.62 ± 0.33 %ID/g
same,tissue uptake at 4 h,"Heart, 4 hrs",0.13 ± 0.06 %ID/g
same,tissue uptake at 24 h,"Heart, 24 hrs",0.05 ± 0.09 %ID/g
same,tissue uptake at […],"Kidney, 15 min",29 ± 14.4 %ID/g
same,tissue uptake at 0.5 h,"Kidney, 30 min",8.7 ± 2.8 %ID/g
same,tissue uptake at 1 h,"Kidney, 1 hr",5.66 ± 1.33 %ID/g
same,tissue uptake at 4 h,"Kidney, 4 hrs",3.18 ± 0.43 %ID/g
same,tissue uptake at 48 h,Kidney,0.48 ± 0.09 %ID/g
same,tissue uptake at […],"L. Intestine, 15 min",8.58 ± 3.04 %ID/g
same,tissue uptake at 0.5 h,"L. Intestine, 30 min",4.33 ± 0.44 %ID/g
same,tissue uptake at 1 h,"L. Intestine, 1 hr",4.29 ± 2.55 %ID/g
same,tissue uptake at 4 h,"L. Intestine, 4 hrs",10.3 ± 2.7 %ID/g
same,tissue uptake at 24 h,"L. Intestine, 24 hrs",2.35 ± 0.43 %ID/g
same,tissue uptake at 48 h,L. Intestine,0.81 ± 0.2 %ID/g
same,tissue uptake at 72 h,"L. Intestine, 72 hrs",0.45 ± 0.04 %ID/g
same,tissue uptake at […],"Liver, 15 min",2.03 ± 0.85 %ID/g
same,tissue uptake at 0.5 h,"Liver, 30 min",0.7 ± 0.21 %ID/g
same,tissue uptake at 72 h,"Liver, 72 hrs",0.07 ± 0.02 %ID/g
same,tissue uptake at 0.5 h,"Lung, 30 min",0.94 ± 0.28 %ID/g
same,tissue uptake at 48 h,Lung,0.06 ± 0.02 %ID/g
same,tissue uptake at 72 h,"Lung, 72 hrs",0.02 ± 0.02 %ID/g
same,tissue uptake at […],"Muscle, 15 min",1.3 ± 0.6 %ID/g
same,tissue uptake at 0.5 h,"Muscle, 30 min",0.32 ± 0.12 %ID/g
same,tissue uptake at 1 h,"Muscle, 1 hr",0.08 ± 0.07 %ID/g
same,tissue uptake at […],"Pancreas, 15 min",54.3 ± 9.7 %ID/g
same,tissue uptake at 0.5 h,"Pancreas, 30 min",27.9 ± 3.44 %ID/g
same,tissue uptake at 4 h,"Pancreas, 4 hrs",16.6 ± 4.43 %ID/g
same,tissue uptake at 48 h,Pancreas,0.77 ± 0.44 %ID/g
same,tissue uptake at 72 h,"Pancreas, 72 hrs",0.23 ± 0.08 %ID/g
same,tissue uptake at 0.5 h,"S. Intestine, 30 min",5.16 ± 1.06 %ID/g
same,tissue uptake at 1 h,"S. Intestine, 1 hr",6.8 ± 1.81 %ID/g
same,tissue uptake at 4 h,"S. Intestine, 4 hrs",2.24 ± 0.35 %ID/g
same,tissue uptake at 48 h,S. Intestine,0.25 ± 0.06 %ID/g
same,tissue uptake at 72 h,"S. Intestine, 72 hrs",0.12 ± 0.02 %ID/g
same,tissue uptake at […],"Spleen, 15 min",2.21 ± 0.8 %ID/g
same,tissue uptake at 0.5 h,"Spleen, 30 min",0.83 ± 0.26 %ID/g
same,tissue uptake at […],"Stomach, 15 min",3.3 ± 1.99 %ID/g
same,tissue uptake at 0.5 h,"Stomach, 30 min",1.82 ± 0.44 %ID/g
same,tissue uptake at 1 h,"Stomach, 1 hr",1.99 ± 0.24 %ID/g
same,tissue uptake at 72 h,"Stomach, 72 hrs",0.05 ± 0.02 %ID/g
same,tissue uptake at 0.5 h,"Tumor, 30 min",4.58 ± 0.53 %ID/g
same,tissue uptake at 4 h,"Tumor, 4 hrs",1.78 ± 1.09 %ID/g
same,tissue uptake at 48 h,Tumor,0.68 ± 0.24 %ID/g
same,tissue uptake at 72 h,"Tumor, 72 hrs",0.34 ± 0.1 %ID/g
same,dose excreted at 24 h,"excretion through the hepatobiliary pathway, 24 hours p.i.",8.5%
